Reference: PMC9482650, “Quantitative fragmentomics allow affinity mapping of interactomes” (Nature Communications, 2022)

Assays:
Test in all cases: holdup assay
Set-up in all cases: key: below the threshold = too weak to quantify, mostly under pKd 3.1 to 4
LNX2_2, Q8N448 = target: T1, LNX2_2, Q8N448
T1 sequence (Q8N448 334-432, limits assumed, looked up): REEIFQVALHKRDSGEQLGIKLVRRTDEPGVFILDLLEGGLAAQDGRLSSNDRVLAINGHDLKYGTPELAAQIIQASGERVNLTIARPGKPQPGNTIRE

MAGI2_3, Q86UL8 = target: MAGI2_3, Q86UL8
MAGI1_1, Q96QZ7 = target: MAGI1_1, Q96QZ7
MAST1, Q9Y2H9 = target: MAST1, Q9Y2H9
LNX1_3, Q8TBB1 = target: LNX1_3, Q8TBB1
SHANK1, Q9Y566 = target: T2, SHANK1, Q9Y566
T2 sequence (Q9Y566 658-767, limits assumed, looked up): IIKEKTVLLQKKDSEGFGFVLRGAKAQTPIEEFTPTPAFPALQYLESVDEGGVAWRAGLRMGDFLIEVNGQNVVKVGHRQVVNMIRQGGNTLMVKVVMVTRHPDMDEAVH

ARHGEF11, O15085 = target: T3, ARHGEF11, O15085
T3 sequence (O15085 42-136, limits assumed, looked up): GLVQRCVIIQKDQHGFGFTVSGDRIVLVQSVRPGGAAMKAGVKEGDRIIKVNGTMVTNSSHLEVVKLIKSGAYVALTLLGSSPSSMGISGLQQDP

MAGI2_5, Q86UL8 = target: MAGI2_5, Q86UL8
APBA1_2, Q02410 = target: T4, APBA1_2, Q02410
T4 sequence (Q02410 742-832, limits assumed, looked up): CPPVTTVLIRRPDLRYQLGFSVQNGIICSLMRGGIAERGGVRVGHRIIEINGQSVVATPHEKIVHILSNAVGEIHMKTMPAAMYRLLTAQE

PDZRN3_1, Q9UPQ7 = target: T5, PDZRN3_1, Q9UPQ7
T5 sequence (Q9UPQ7 244-349, limits assumed, looked up): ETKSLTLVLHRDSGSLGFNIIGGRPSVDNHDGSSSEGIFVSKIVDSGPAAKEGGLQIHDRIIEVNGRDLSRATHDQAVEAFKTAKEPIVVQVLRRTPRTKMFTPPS

MAGI2_2, Q86UL8 = target: MAGI2_2, Q86UL8
AHNAK1, Q09666 = target: AHNAK1, Q09666
GRIP2_4, Q9C0E4 = target: GRIP2_4, Q9C0E4
PTPN13_1, Q12923 = target: T6, PTPN13_1, Q12923
T6 sequence (Q12923 1088-1188, limits assumed, looked up): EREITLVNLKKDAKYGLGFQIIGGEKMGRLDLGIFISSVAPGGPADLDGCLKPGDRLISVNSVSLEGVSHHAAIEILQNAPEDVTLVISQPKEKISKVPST

SCRIB_3, Q14160 = target: SCRIB_3, Q14160
ARHGEF12, Q9NZN5-2 = target: ARHGEF12, Q9NZN5-2
NHERF2_2, Q15599 = target: NHERF2_2, Q15599
FRMPD3, Q5JV73 = target: FRMPD3, Q5JV73
Inadl_9, Q8NI35 = target: Inadl_9, Q8NI35
APBA2_1, Q99767 = target: T7, APBA2_1, Q99767
T7 sequence (Q99767 563-664, limits assumed, looked up): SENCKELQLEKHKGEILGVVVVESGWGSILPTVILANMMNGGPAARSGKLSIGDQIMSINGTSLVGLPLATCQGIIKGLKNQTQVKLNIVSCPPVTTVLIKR

MAGI2_4, Q86UL8 = target: MAGI2_4, Q86UL8
Inadl_4, Q8NI35 = target: Inadl_4, Q8NI35
DLG5_1, Q8TDM6 = target: DLG5_1, Q8TDM6
DLG4_3, P78352 = target: DLG4_3, P78352
HTRA4, P83105 = target: T8, HTRA4, P83105
T8 sequence (P83105 378-476, limits assumed, looked up): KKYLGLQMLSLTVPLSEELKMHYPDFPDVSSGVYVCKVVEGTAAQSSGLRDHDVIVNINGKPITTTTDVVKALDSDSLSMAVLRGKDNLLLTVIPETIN

NOS1, P29475 = target: NOS1, P29475
HTRA3, P83110 = target: T9, HTRA3, P83110
T9 sequence (P83110 354-453, limits assumed, looked up): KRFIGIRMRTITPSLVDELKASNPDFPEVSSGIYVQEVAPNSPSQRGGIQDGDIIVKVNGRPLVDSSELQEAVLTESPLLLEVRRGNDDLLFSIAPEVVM

Inadl_3, Q8NI35 = target: Inadl_3, Q8NI35
[1] = plain residues with an end cap or a label only (N-terminal biotin on a linker: ttds)
[2] = plain residues with an end cap or a label only (N-terminal biotin on a linker: ahx)
[3] = plain residues with an end cap or a label only (N-terminal biotin on a linker: ado-ado)

Chain of MAST1, Q9Y2H9 (Q9Y2H9 962-1065): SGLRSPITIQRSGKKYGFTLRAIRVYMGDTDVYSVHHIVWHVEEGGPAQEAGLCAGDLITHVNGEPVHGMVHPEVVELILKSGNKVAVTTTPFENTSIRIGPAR
Chain of FRMPD3, Q5JV73 (Q5JV73 12-100): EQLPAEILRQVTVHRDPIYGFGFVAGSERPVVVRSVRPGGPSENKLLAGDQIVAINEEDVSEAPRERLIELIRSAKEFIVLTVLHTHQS
Chain of MAGI2_4, Q86UL8 (Q86UL8 772-865): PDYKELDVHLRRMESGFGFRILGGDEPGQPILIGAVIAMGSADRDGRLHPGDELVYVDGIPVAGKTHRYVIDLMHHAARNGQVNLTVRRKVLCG
Chain of ARHGEF12, Q9NZN5-2 (Q9NZN5 other isoform, or with tags, fused parts or gaps): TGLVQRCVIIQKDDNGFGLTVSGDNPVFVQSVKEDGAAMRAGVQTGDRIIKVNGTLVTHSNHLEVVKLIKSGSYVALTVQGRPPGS
Chain of DLG4_3, P78352 (P78352 306-403): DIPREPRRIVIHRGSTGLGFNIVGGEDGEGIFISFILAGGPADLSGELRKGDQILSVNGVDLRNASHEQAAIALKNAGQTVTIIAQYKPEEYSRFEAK
Chain of MAGI1_1, Q96QZ7 (Q96QZ7 1-106): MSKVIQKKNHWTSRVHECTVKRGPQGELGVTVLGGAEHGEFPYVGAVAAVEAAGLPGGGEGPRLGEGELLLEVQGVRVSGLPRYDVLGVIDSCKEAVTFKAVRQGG
Chain of NOS1, P29475 (P29475 9-101): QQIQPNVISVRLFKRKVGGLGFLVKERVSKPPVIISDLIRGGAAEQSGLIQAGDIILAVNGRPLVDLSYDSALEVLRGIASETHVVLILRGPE
Chain of MAGI2_3, Q86UL8 (Q86UL8 600-682): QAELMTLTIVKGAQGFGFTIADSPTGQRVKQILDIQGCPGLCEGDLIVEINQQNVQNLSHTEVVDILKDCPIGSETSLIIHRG
Chain of GRIP2_4, Q9C0E4 (Q9C0E4 446-548): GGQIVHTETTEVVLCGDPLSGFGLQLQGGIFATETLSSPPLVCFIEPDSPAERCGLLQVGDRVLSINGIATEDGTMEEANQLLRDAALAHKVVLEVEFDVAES
Chain of MAGI2_5, Q86UL8 (Q86UL8 915-1017): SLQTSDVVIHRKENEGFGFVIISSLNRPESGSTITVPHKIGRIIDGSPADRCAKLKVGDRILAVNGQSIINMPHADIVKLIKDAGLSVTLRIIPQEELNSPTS
Chain of LNX1_3, Q8TBB1 (Q8TBB1 500-596): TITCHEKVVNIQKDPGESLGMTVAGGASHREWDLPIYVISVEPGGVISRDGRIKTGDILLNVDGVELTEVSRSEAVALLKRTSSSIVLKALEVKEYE
Chain of Inadl_3, Q8NI35 (Q8NI35 359-469): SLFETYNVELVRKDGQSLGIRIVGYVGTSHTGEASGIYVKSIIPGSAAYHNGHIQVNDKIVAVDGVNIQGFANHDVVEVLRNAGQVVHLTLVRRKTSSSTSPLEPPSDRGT
Chain of Inadl_4, Q8NI35 (Q8NI35 547-651): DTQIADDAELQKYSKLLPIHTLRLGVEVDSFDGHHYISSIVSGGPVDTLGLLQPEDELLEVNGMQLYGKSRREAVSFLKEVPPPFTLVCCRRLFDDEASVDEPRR
Chain of AHNAK1, Q09666 (Q09666 4-100): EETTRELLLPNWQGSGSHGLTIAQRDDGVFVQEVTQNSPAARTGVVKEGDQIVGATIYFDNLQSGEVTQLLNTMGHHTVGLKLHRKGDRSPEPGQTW
Chain of Inadl_9, Q8NI35 (Q8NI35 1530-1615): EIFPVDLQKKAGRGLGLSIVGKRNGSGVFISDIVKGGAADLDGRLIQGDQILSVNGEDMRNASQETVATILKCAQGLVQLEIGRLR
Chain of MAGI2_2, Q86UL8 (Q86UL8 410-522): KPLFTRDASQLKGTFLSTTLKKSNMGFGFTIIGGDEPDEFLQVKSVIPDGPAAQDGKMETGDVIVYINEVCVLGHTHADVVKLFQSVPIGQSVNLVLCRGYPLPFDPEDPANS
Chain of NHERF2_2, Q15599 (Q15599 142-238): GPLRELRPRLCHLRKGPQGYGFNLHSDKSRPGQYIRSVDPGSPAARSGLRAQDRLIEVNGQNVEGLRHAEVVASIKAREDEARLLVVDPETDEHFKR
Chain of SCRIB_3, Q14160 (Q14160 999-1103): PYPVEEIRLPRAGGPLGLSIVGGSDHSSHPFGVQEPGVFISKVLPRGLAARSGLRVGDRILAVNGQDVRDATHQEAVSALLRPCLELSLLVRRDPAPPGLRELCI
Chain of DLG5_1, Q8TDM6 (Q8TDM6 617-713): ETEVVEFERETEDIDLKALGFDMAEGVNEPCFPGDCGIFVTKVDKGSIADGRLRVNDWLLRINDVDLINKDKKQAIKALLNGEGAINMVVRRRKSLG

B1: GDA, Q9Y2T3 (peptide)
chain: KQVVPFSSSV
Which pKd (LNX2_2, Q8N448; [1]) does the source give for B1 here?
Its pKd is 3.65.

What about the pKd (MAGI2_3, Q86UL8; [1]) of the same binder?
The pKd was “below the threshold”.

And the pKd (MAGI1_1, Q96QZ7; [1])?
Its pKd is “below the threshold”.

And the pKd (MAST1, Q9Y2H9; [1])?
Its pKd is 4.04.

And the pKd (LNX1_3, Q8TBB1; [1])?
The pKd was 3.55.

What about the pKd (SHANK1, Q9Y566; [1]) of the same binder?
The pKd was 3.49.

And the pKd (ARHGEF11, O15085; [1])?
The pKd was 3.56.

And the pKd (MAGI2_5, Q86UL8; [1])?
The pKd was 3.74.

And the pKd (APBA1_2, Q02410; [1])?
Its pKd is “below the threshold”.

And the pKd (PDZRN3_1, Q9UPQ7; [1])?
Its pKd is “below the threshold”.

And the pKd (MAGI2_2, Q86UL8; [1])?
The pKd was “below the threshold”.

And the pKd (AHNAK1, Q09666; [1])?
The pKd was “below the threshold”.

And the pKd (GRIP2_4, Q9C0E4; [1])?
The pKd was “below the threshold”.

And the pKd (PTPN13_1, Q12923; [1])?
Its pKd is “below the threshold”.

And the pKd (SCRIB_3, Q14160; [1])?
The pKd was 3.93.

And the pKd (ARHGEF12, Q9NZN5-2; [1])?
Its pKd is 3.98.

And the pKd (NHERF2_2, Q15599; [1])?
The pKd was “below the threshold”.

And the pKd (FRMPD3, Q5JV73; [1])?
Its pKd is “below the threshold”.

And the pKd (Inadl_9, Q8NI35; [1])?
The pKd was 3.52.

What about the pKd (APBA2_1, Q99767; [1]) of the same binder?
The pKd was “below the threshold”.

And the pKd (MAGI2_4, Q86UL8; [1])?
Its pKd is 3.69.

And the pKd (Inadl_4, Q8NI35; [1])?
The pKd was “below the threshold”.

And the pKd (DLG5_1, Q8TDM6; [1])?
The pKd was “below the threshold”.

And the pKd (DLG4_3, P78352; [1])?
Its pKd is “below the threshold”.

And the pKd (HTRA4, P83105; [1])?
The pKd was “below the threshold”.

And the pKd (NOS1, P29475; [1])?
Its pKd is “below the threshold”.

And the pKd (HTRA3, P83110; [1])?
Its pKd is “below the threshold”.

What about the pKd (Inadl_3, Q8NI35; [1]) of the same binder?
The pKd was “below the threshold”.

B2: DLL1, O00548 (peptide)
chain: KDECVIATEV
What does the source list for B2?
pKd (LNX2_2, Q8N448; [2]): 4.27; pKd (MAGI2_3, Q86UL8; [2]): below the threshold; pKd (MAGI1_1, Q96QZ7; [2]): below the threshold; pKd (MAST1, Q9Y2H9; [2]): 4.38; pKd (LNX1_3, Q8TBB1; [2]): below the threshold; pKd (SHANK1, Q9Y566; [2]): 3.76; pKd (ARHGEF11, O15085; [2]): 4.51; pKd (MAGI2_5, Q86UL8; [2]): 5.32; pKd (APBA1_2, Q02410; [2]): 3.99; pKd (PDZRN3_1, Q9UPQ7; [2]): below the threshold; pKd (MAGI2_2, Q86UL8; [2]): below the threshold; pKd (AHNAK1, Q09666; [2]): below the threshold; pKd (GRIP2_4, Q9C0E4; [2]): below the threshold; pKd (PTPN13_1, Q12923; [2]): below the threshold; pKd (SCRIB_3, Q14160; [2]): 4.11; pKd (ARHGEF12, Q9NZN5-2; [2]): 4.44; pKd (NHERF2_2, Q15599; [2]): below the threshold; pKd (FRMPD3, Q5JV73; [2]): below the threshold; pKd (Inadl_9, Q8NI35; [2]): 3.87; pKd (APBA2_1, Q99767; [2]): below the threshold; pKd (MAGI2_4, Q86UL8; [2]): 3.64; pKd (Inadl_4, Q8NI35; [2]): below the threshold; pKd (DLG5_1, Q8TDM6; [2]): below the threshold; pKd (DLG4_3, P78352; [2]): below the threshold; pKd (HTRA4, P83105; [2]): 3.53; pKd (NOS1, P29475; [2]): 3.55; pKd (HTRA3, P83110; [2]): below the threshold; pKd (Inadl_3, Q8NI35; [2]): 3.5

B3: U2AF2, P26368 (peptide)
chain: PDSYHRRDFW
With B3 as the binder, how does the pKd (LNX2_2, Q8N448; [3]) read?
The pKd was “below the threshold”.

What about the pKd (MAGI2_3, Q86UL8; [3]) of the same binder?
Its pKd is “below the threshold”.

What about the pKd (MAGI1_1, Q96QZ7; [3]) of the same binder?
The pKd was “below the threshold”.

What about the pKd (MAST1, Q9Y2H9; [3]) of the same binder?
The pKd was 3.49.

And the pKd (LNX1_3, Q8TBB1; [3])?
The pKd was “below the threshold”.

What about the pKd (SHANK1, Q9Y566; [3]) of the same binder?
Its pKd is “below the threshold”.

And the pKd (ARHGEF11, O15085; [3])?
Its pKd is 3.6.

And the pKd (MAGI2_5, Q86UL8; [3])?
The pKd was “below the threshold”.

And the pKd (APBA1_2, Q02410; [3])?
Its pKd is “below the threshold”.

And the pKd (PDZRN3_1, Q9UPQ7; [3])?
The pKd was “below the threshold”.

What about the pKd (MAGI2_2, Q86UL8; [3]) of the same binder?
Its pKd is “below the threshold”.

What about the pKd (AHNAK1, Q09666; [3]) of the same binder?
Its pKd is “below the threshold”.

What about the pKd (GRIP2_4, Q9C0E4; [3]) of the same binder?
Its pKd is “below the threshold”.

What about the pKd (PTPN13_1, Q12923; [3]) of the same binder?
Its pKd is “below the threshold”.

What about the pKd (SCRIB_3, Q14160; [3]) of the same binder?
Its pKd is “below the threshold”.

What about the pKd (ARHGEF12, Q9NZN5-2; [3]) of the same binder?
The pKd was 3.52.

What about the pKd (NHERF2_2, Q15599; [3]) of the same binder?
The pKd was 3.79.

And the pKd (FRMPD3, Q5JV73; [3])?
Its pKd is “below the threshold”.

And the pKd (Inadl_9, Q8NI35; [3])?
Its pKd is “below the threshold”.

And the pKd (APBA2_1, Q99767; [3])?
Its pKd is “below the threshold”.

And the pKd (MAGI2_4, Q86UL8; [3])?
The pKd was 3.54.

And the pKd (Inadl_4, Q8NI35; [3])?
Its pKd is “below the threshold”.

What about the pKd (DLG5_1, Q8TDM6; [3]) of the same binder?
The pKd was “below the threshold”.

And the pKd (DLG4_3, P78352; [3])?
The pKd was “below the threshold”.

What about the pKd (HTRA4, P83105; [3]) of the same binder?
The pKd was 3.99.

What about the pKd (NOS1, P29475; [3]) of the same binder?
The pKd was “below the threshold”.

And the pKd (HTRA3, P83110; [3])?
The pKd was 4.01.

And the pKd (Inadl_3, Q8NI35; [3])?
The pKd was “below the threshold”.
